Measurements published in patent US20240108748.

Biological target: T1, {Pra}KTFKC plasmin-cleavable peptide, as Cholesterol-KTFKC-PEG2000 (not fully specified)
T1 chain: KTFKC

B1: Human plasmin (protein)
chain: KVYLSECKTGNGKNYRGTMSKTKNGITCQKWSSTSPHRPRFSPATHPSEGLEENYCRNPDNDPQGPWCYTTDPEKRYDYCDILECEEECMHCSGENYDGKISKTMSGLECQAWDSQSPHAHGYIPSKFPNKNLKKNYCRNPDRELRPWCFTTDPNKRWELCDIPRCTTPPPSSGPTYQCLKGTGENYRGNVAVTVSGHTCQHWSAQTPHTHNRTPENFPCKNLDENYCRNPDGKRAPWCHTTNSQVRWEYCKIPSCDSSPVSTEQLAPTAPPELTPVVQDCYHGDGQSYRGTSSTTTTGKKCQSWSSMTPHRHQKTPENYPNAGLTMNYCRNPDADKGPWCFTTDPSVRWEYCNLKKCSGTEASVVAPPPVVLLPDVETPSEEDCMFGNGKGYRGKRATTVTGTPCQDWAAQEPHRHSIFTPETNPRAGLEKNYCRNPDGDVGGPWCYTTNPRKLYDYCDVPQCAAPSFDCGKPQVEPKKCPGRVVGGCVAHPHSWPWQVSLRTRFGMHFCGGTLISPEWVLTAAHCLEKSPRPSSYKVILGAHQEVNLEPHVQEIEVSRLFLEPTRKDIALLKLSSPAVITDKVIPACLPSPNYVVADRTECFITGWGETQGTFGAGLLKEAQLPVIENKVCNRYEFLNGRVQSTELCAGHLAGGTDSCQGDSGGPLVCFEKDKYILQGVTSWGLGCARPNKPGVYVRVSRFVTWIEGVMRNN
Annexin V staining of immobilized PPNs after plasmin incubation (phosphatidylserine exposure after removal of the PEG cloak): PPNs incubated with ≥50 nM human plasmin had increased Annexin V staining
